{"source": "paper PMC11740656", "target": "human CLDN4 (YFP- or CFP-tagged) (human)", "assay": "FRET or BRET", "note": "“And” between values parts separate entries of the source, which are not always exact repeats. Identical values can stand only once."}
{"substance": "human CLDN8 (YFP- or CFP-tagged) (natural protein)", "values": [{"measurement": "stoichiometry N (hCLDN8:hCLDN4)", "value": "0.5 and 0.25"}]}
